# Measured values reported in US10253076B2, “Peptides and combination of peptides for use in immunotherapy against ovarian cancer and other cancers” (immatics biotechnologies GmbH, priority 2015, dated 2019).
# Molecular target: HLA-A*02:01 (Homo sapiens, UniProt P04439, D140Y/D185E/D98H/E176V/E277Q/G131W/G231S/I119V/I121R/I166T/I218V/L300P/L318F/N151K/N90K/P208A/P217A/Q86G/Q94H/R138H/R169H/T345S)
# Assay: MHC binding assay (UV-ligand exchange, beta2m ELISA, peptide exchange yield)
# Conditions: binding of HLA-class I restricted peptides to HLA-A*02:01, ranged by peptide exchange yield (UV-ligand exchange, β2m ELISA)
# Outline: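 Peptide–HLA-A*02:01 complexes made by UV-mediated exchange of a photocleavable peptide with the test peptide. Exchange products diluted 100-fold on streptavidin-coated plates, 1 h at 37°C, then HRP anti-β2m 1 h at 37°C; TMB read at 450 nm to give exchange yield.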
row,Substance,Peptide exchange
1,315 (YLQDVVEQA; listed as Homo sapiens) [compound 315],″+++″ (≥50% = +++)
2,316 (ILLERLWYV; listed as Homo sapiens) [compound 316],″+++″ (≥50% = +++)
3,318 (GLINTGVLSV; listed as Homo sapiens) [compound 318],″++″ (≥20% = ++)
4,321 (GLFEDVTQPGILL; listed as Homo sapiens) [compound 321],″++++″ (≥75% = ++++)
5,322 (TLMTSLPAL; listed as Homo sapiens) [compound 322],″+++″ (≥50% = +++)
6,324 (FLYDEIEAEV; listed as Homo sapiens) [compound 324],″+++″ (≥50% = +++)
7,325 (FIMPATVADATAV; listed as Homo sapiens) [compound 325],″+++″ (≥50% = +++)
8,326 (FLPEALDFV; listed as Homo sapiens) [compound 326],″+++″ (≥50% = +++)
9,329 (FLVTLNNVEV; listed as Homo sapiens) [compound 329],″++++″ (≥75% = ++++)
10,330 (QLALKVEGV; listed as Homo sapiens) [compound 330],″+++″ (≥50% = +++)
11,331 (KVDTVWVNV; listed as Homo sapiens) [compound 331],″+++″ (≥50% = +++)
12,333 (FLPDANSSV; listed as Homo sapiens) [compound 333],″++″ (≥20% = ++)
13,334 (TLTKVLVAL; listed as Homo sapiens) [compound 334],″+++″ (≥50% = +++)
14,337 (HLLSELEAAPYL; listed as Homo sapiens) [compound 337],″++++″ (≥75% = ++++)
15,341 (SQIALNEKLVNL; listed as Homo sapiens) [compound 341],″+++″ (≥50% = +++)
16,342 (HIYDKVMTV; listed as Homo sapiens) [compound 342],″+++″ (≥50% = +++)
17,343 (SLLEVNEESTV; listed as Homo sapiens) [compound 343],″+++″ (≥50% = +++)
18,345 (VIWKALIHL; listed as Homo sapiens) [compound 345],″+++″ (≥50% = +++)
19,349 (SLTEYLQNV; listed as Homo sapiens) [compound 349],″++++″ (≥75% = ++++)
20,350 (ALLDVTHSELTV; listed as Homo sapiens) [compound 350],″+++″ (≥50% = +++)
21,351 (SLIPNLRNV; listed as Homo sapiens) [compound 351],″+++″ (≥50% = +++)
22,352 (SLLELLHIYV; listed as Homo sapiens) [compound 352],″+++″ (≥50% = +++)

row,Substance,Peptide exchange
1,353 (YLFEMDSSL; listed as Homo sapiens) [compound 353],″++″ (≥20% = ++)
2,354 (LILEGVDTV; listed as Homo sapiens) [compound 354],″++″ (≥20% = ++)
3,358 (ALDEYTSEL; listed as Homo sapiens) [compound 358],″++++″ (≥75% = ++++)
4,364 (LLQNEQFEL; listed as Homo sapiens) [compound 364],″+++″ (≥50% = +++)
5,365 (YVIDQGETDVYV; listed as Homo sapiens) [compound 365],″+++″ (≥50% = +++)
6,366 (RLLDMGETDLML; listed as Homo sapiens) [compound 366],″+++″ (≥50% = +++)
7,367 (SLQNHNHQL; listed as Homo sapiens) [compound 367],″+++″ (≥50% = +++)
8,373 (SLLEDKGLAEV; listed as Homo sapiens) [compound 373],″++″ (≥20% = ++)
9,376 (AMFESSQNVLL; listed as Homo sapiens) [compound 376],″++″ (≥20% = ++)
10,379 (IMEGTLTRV; listed as Homo sapiens) [compound 379],″++″ (≥20% = ++)
11,380 (TLIEDEIATI; listed as Homo sapiens) [compound 380],″++″ (≥20% = ++)
12,381 (FIDEAYVEV; listed as Homo sapiens) [compound 381],″++″ (≥20% = ++)
13,382 (ALQNYIKEA; listed as Homo sapiens) [compound 382],″++″ (≥20% = ++)
14,386 (ILFRYPLTI; listed as Homo sapiens) [compound 386],″+++″ (≥50% = +++)
15,387 (ALFQATAEV; listed as Homo sapiens) [compound 387],″++++″ (≥75% = ++++)
16,389 (LLADVTHLL; listed as Homo sapiens) [compound 389],″++″ (≥20% = ++)
17,390 (ALFMKQIYL; listed as Homo sapiens) [compound 390],″+++″ (≥50% = +++)
18,392 (ALLHPQGFEV; listed as Homo sapiens) [compound 392],″++″ (≥20% = ++)
19,394 (LLAVIGGLVYL; listed as Homo sapiens) [compound 394],″+++″ (≥50% = +++)
20,395 (ALALGGIAVV; listed as Homo sapiens) [compound 395],″++++″ (≥75% = ++++)
21,396 (ALLPDLPAL; listed as Homo sapiens) [compound 396],″+++″ (≥50% = +++)

# Second part, the substance after the results:
row,Peptide exchange,Substance
1,″+++″ (≥50% = +++),317 (SLAALVVHV; listed as Homo sapiens) [compound 317]
2,″++++″ (≥75% = ++++),320 (KMFEFVEPLL; listed as Homo sapiens) [compound 320]
3,″+++″ (≥50% = +++),327 (GLAPFTEGISFV; listed as Homo sapiens) [compound 327]
4,″+++″ (≥50% = +++),328 (ALNDQVFEI; listed as Homo sapiens) [compound 328]
5,″+++″ (≥50% = +++),332 (YLISELEAA; listed as Homo sapiens) [compound 332]
6,″+++″ (≥50% = +++),335 (YSLSSVVTV; listed as Homo sapiens) [compound 335]
7,″+++″ (≥50% = +++),336 (ILLTAIVQV; listed as Homo sapiens) [compound 336]
8,″++++″ (≥75% = ++++),339 (GLWEIENNPTVKA; listed as Homo sapiens) [compound 339]
9,″++++″ (≥75% = ++++),340 (ALLSMTFPL; listed as Homo sapiens) [compound 340]
10,″+++″ (≥50% = +++),344 (YLQDQHLLLTV; listed as Homo sapiens) [compound 344]
11,″+++″ (≥50% = +++),346 (LLDSKVPSV; listed as Homo sapiens) [compound 346]
12,″++++″ (≥75% = ++++),347 (SLFKHDPAAWEA; listed as Homo sapiens) [compound 347]
13,″++++″ (≥75% = ++++),348 (ILLDVKTRL; listed as Homo sapiens) [compound 348]
14,″++″ (≥20% = ++),355 (SIQQSIERLLV; listed as Homo sapiens) [compound 355]
15,″+++″ (≥50% = +++),356 (KLLGKLPEL; listed as Homo sapiens) [compound 356]
16,″+++″ (≥50% = +++),357 (SMHDLVLQV; listed as Homo sapiens) [compound 357]
17,″+++″ (≥50% = +++),359 (YLLPESVDL; listed as Homo sapiens) [compound 359]

row,Peptide exchange,Substance
1,″+++″ (≥50% = +++),361 (ALYELEGTTV; listed as Homo sapiens) [compound 361]
2,″+++″ (≥50% = +++),362 (TLYGLSVLL; listed as Homo sapiens) [compound 362]
3,″++″ (≥20% = ++),363 (KVLDVSDLESV; listed as Homo sapiens) [compound 363]
4,″+++″ (≥50% = +++),369 (GLFPEHLIDV; listed as Homo sapiens) [compound 369]
5,″+++″ (≥50% = +++),370 (SLLQDLVSV; listed as Homo sapiens) [compound 370]
6,″++++″ (≥75% = ++++),371 (FLQAHLHTA; listed as Homo sapiens) [compound 371]
7,″++″ (≥20% = ++),372 (TMLLNIPLV; listed as Homo sapiens) [compound 372]
8,″++″ (≥20% = ++),374 (FLLQQHLISA; listed as Homo sapiens) [compound 374]
9,″++″ (≥20% = ++),375 (SLTETIEGV; listed as Homo sapiens) [compound 375]
10,″++″ (≥20% = ++),377 (FLLDSSASV; listed as Homo sapiens) [compound 377]
11,″+++″ (≥50% = +++),378 (ALGYFVPYV; listed as Homo sapiens) [compound 378]
12,″+++″ (≥50% = +++),383 (ALLELENSVTL; listed as Homo sapiens) [compound 383]
13,″++″ (≥20% = ++),385 (SLLEQGLVEA; listed as Homo sapiens) [compound 385]
14,″+++″ (≥50% = +++),388 (SLTIDGIRYV; listed as Homo sapiens) [compound 388]
15,″+++″ (≥50% = +++),391 (YVYPQRLNFV; listed as Homo sapiens) [compound 391]
16,″++″ (≥20% = ++),393 (GLLDTQTSQVLTA; listed as Homo sapiens) [compound 393]
17,″+++″ (≥50% = +++),397 (YLFGERLLEC; listed as Homo sapiens) [compound 397]
